In US20040018971A1 (published 2004):

B1: HER2/neu peptide, position 739, 9 amino acids (peptide)
peptide: WIPDGENVK
notes: Synthetic peptide; also called Her2/neu.739 (9-mer)
B2: HER2/neu peptide, position 888, 9 amino acids (peptide)
peptide: WMALESILR
notes: Synthetic peptide; also called Her2/neu.888 (9-mer)
B3: HER2/neu peptide, position 888, 10 amino acids (peptide)
peptide: WMALESILRR
notes: Synthetic peptide; also called Her2/neu.888 (10-mer)
B4: HER2/neu peptide, position 959, 10 amino acids (peptide)
peptide: WMIDSECRPR
notes: Synthetic peptide; also called Her2/neu.959 (10-mer)
B5: HER2/neu peptide, position 835, 10 amino acids (peptide)
peptide: YLEDVRLVHR
notes: Synthetic peptide; also called Her2/neu.835 (10-mer)
B6: HER2/neu peptide, position 83, 10 amino acids (peptide)
peptide: YVLIAHNQVR
notes: Synthetic peptide; also called Her2/neu.83 (10-mer)

The binders below were run against T1, HLA-DRB1*0101 (human) (assay: competition with 125I probe peptide, purified HLA).
T1 construct: also called DR1
GTDMKLRLPASPETH [Her2/neu.28] showed an IC50 of 5000 nM.
DMKLRLPASPETHLD [Her2/neu.30] gave an IC50 of 5000 nM.
In the case of LTSIISAVVGILLVV [Her2/neu.651], the IC50 is reported as 26 nM.
Binder ETELVEPLTPSGAMP [Her2/neu.693] has an IC50 of 833 nM.
ITDFGLARLLDIDET [Her2/neu.861] gave an IC50 of 1040 nM.
For KVPIKWMALESILRR [Her2/neu.883], the IC50 was 2.3 nM.

These binders were tested against HLA-A*0301 (purified HLA class I molecule) (human) (assay: competition vs 125I standard peptide, purified HLA).
For GVVFGILIK [HER2/neu peptide, position 668, 9 amino acids], the relative binding ratio was 0.0047 ratio (IC50 standard/IC50 test).
With HTVPWDQLFR (also called Her2/neu.478) [HER2/neu peptide, position 478, 10 amino acids] the relative binding ratio was 0.0035 ratio (IC50 standard/IC50 test).
In the case of ILIKRRQQK [HER2/neu peptide, position 673, 9 amino acids], the relative binding ratio is reported as 0.38 ratio (IC50 standard/IC50 test).
With ILKETELRK [HER2/neu peptide, position 714, 9 amino acids] the relative binding ratio was 0.019 ratio (IC50 standard/IC50 test).
ILWKDIFHK (also called Her2/neu.167) [HER2/neu peptide, position 167, 9 amino acids] was tested, and the relative binding ratio was 0.28 ratio (IC50 standard/IC50 test).
For KVLRENTSPK [HER2/neu peptide, position 753, 10 amino acids], the relative binding ratio was 0.38 ratio (IC50 standard/IC50 test).
In the case of LLNWCMQIAK [HER2/neu peptide, position 822, 10 amino acids], the relative binding ratio is reported as 0.14 ratio (IC50 standard/IC50 test).

Each binder was assayed against T2, HLA-A*1101 (purified HLA class I molecule) (human) (assay: competition vs 125I standard peptide, purified HLA).
T2 construct: Purified MHC molecule
With GVVFGILIK [HER2/neu peptide, position 668, 9 amino acids] the relative binding ratio was 0.089 ratio (IC50 standard/IC50 test).
In the case of HTVPWDQLFR (also called Her2/neu.478) [HER2/neu peptide, position 478, 10 amino acids], the relative binding ratio is reported as 0.072 ratio (IC50 standard/IC50 test).
For ILIKRRQQK [HER2/neu peptide, position 673, 9 amino acids], the relative binding ratio was 0.0097 ratio (IC50 standard/IC50 test).
With ILKETELRK [HER2/neu peptide, position 714, 9 amino acids] the relative binding ratio was 0.0023 ratio (IC50 standard/IC50 test).
With ILWKDIFHK (also called Her2/neu.167) [HER2/neu peptide, position 167, 9 amino acids] the relative binding ratio was 0.31 ratio (IC50 standard/IC50 test).
For KVLRENTSPK [HER2/neu peptide, position 753, 10 amino acids], the relative binding ratio was 0.22 ratio (IC50 standard/IC50 test).
In the case of LLNWCMQIAK [HER2/neu peptide, position 822, 10 amino acids], the relative binding ratio is reported as 0.14 ratio (IC50 standard/IC50 test).

The binders below were run against T3, HLA-A*3101 (purified HLA class I molecule) (human) (assay: competition vs 125I standard peptide, purified HLA).
T3 construct: Purified MHC molecule
With GVVFGILIK [HER2/neu peptide, position 668, 9 amino acids] the relative binding ratio was 0.0019 ratio (IC50 standard/IC50 test).
For HTVPWDQLFR (also called Her2/neu.478) [HER2/neu peptide, position 478, 10 amino acids], the relative binding ratio was 0.96 ratio (IC50 standard/IC50 test).
In the case of ILIKRRQQK [HER2/neu peptide, position 673, 9 amino acids], the relative binding ratio is reported as 0.076 ratio (IC50 standard/IC50 test).
For ILKETELRK [HER2/neu peptide, position 714, 9 amino acids], the relative binding ratio was 0.0009 ratio (IC50 standard/IC50 test).
With ILWKDIFHK (also called Her2/neu.167) [HER2/neu peptide, position 167, 9 amino acids] the relative binding ratio was 0.22 ratio (IC50 standard/IC50 test).
KVLRENTSPK [HER2/neu peptide, position 753, 10 amino acids] was tested, and the relative binding ratio was 0.0068 ratio (IC50 standard/IC50 test).
For LLNWCMQIAK [HER2/neu peptide, position 822, 10 amino acids], the relative binding ratio was 0.01 ratio (IC50 standard/IC50 test).

The binders below were run against T4, HLA-A*3301 (purified HLA class I molecule) (human) (assay: competition vs 125I standard peptide, purified HLA).
T4 construct: Purified MHC molecule
GVVFGILIK [HER2/neu peptide, position 668, 9 amino acids] was tested, and the relative binding ratio was 0.0025 ratio (IC50 standard/IC50 test).
With HTVPWDQLFR (also called Her2/neu.478) [HER2/neu peptide, position 478, 10 amino acids] the relative binding ratio was 0.33 ratio (IC50 standard/IC50 test).
For ILIKRRQQK [HER2/neu peptide, position 673, 9 amino acids], the relative binding ratio was 0.0064 ratio (IC50 standard/IC50 test).
ILKETELRK [HER2/neu peptide, position 714, 9 amino acids] was tested, and the relative binding ratio was 0.001 ratio (IC50 standard/IC50 test).
With ILWKDIFHK (also called Her2/neu.167) [HER2/neu peptide, position 167, 9 amino acids] the relative binding ratio was 0.03 ratio (IC50 standard/IC50 test).
In the case of KVLRENTSPK [HER2/neu peptide, position 753, 10 amino acids], the relative binding ratio is reported as 0.0012 ratio (IC50 standard/IC50 test).
For LLNWCMQIAK [HER2/neu peptide, position 822, 10 amino acids], the relative binding ratio was 0.0088 ratio (IC50 standard/IC50 test).

What follows are binders tested against T5, HLA-A*6801 (purified HLA class I molecule) (human) (assay: competition vs 125I standard peptide, purified HLA).
T5 construct: Purified MHC molecule
In the case of GVVFGILIK [HER2/neu peptide, position 668, 9 amino acids], the relative binding ratio is reported as 0.0011 ratio (IC50 standard/IC50 test).
For HTVPWDQLFR (also called Her2/neu.478) [HER2/neu peptide, position 478, 10 amino acids], the relative binding ratio was 2 ratio (IC50 standard/IC50 test).
In the case of ILIKRRQQK [HER2/neu peptide, position 673, 9 amino acids], the relative binding ratio is reported as 0.0001 ratio (IC50 standard/IC50 test).
For ILKETELRK [HER2/neu peptide, position 714, 9 amino acids], the relative binding ratio was 0.0001 ratio (IC50 standard/IC50 test).
For ILWKDIFHK (also called Her2/neu.167) [HER2/neu peptide, position 167, 9 amino acids], the relative binding ratio was 0.0046 ratio (IC50 standard/IC50 test).
In the case of KVLRENTSPK [HER2/neu peptide, position 753, 10 amino acids], the relative binding ratio is reported as 0.0008 ratio (IC50 standard/IC50 test).
For LLNWCMQIAK [HER2/neu peptide, position 822, 10 amino acids], the relative binding ratio was 0.0086 ratio (IC50 standard/IC50 test).

What follows are binders tested against T6, HLA-A*0301 (human) (assay: competition with 125I-labelled standard peptide for purified HLA, gel filtration).
T6 construct: also called A3
With B1 the relative binding ratio was 0.0002 ratio (IC50 of standard peptide / IC50 of test peptide).
With B2 the relative binding ratio was -0.0002 ratio (IC50 of standard peptide / IC50 of test peptide).
With B3 the relative binding ratio was 0.0085 ratio (IC50 of standard peptide / IC50 of test peptide).
In the case of B4, the relative binding ratio is reported as -0.0002 ratio (IC50 of standard peptide / IC50 of test peptide).
In the case of B5, the relative binding ratio is reported as 0.0003 ratio (IC50 of standard peptide / IC50 of test peptide).
For B6, the relative binding ratio was 0.0043 ratio (IC50 of standard peptide / IC50 of test peptide).

Each binder was assayed against T7, HLA-A*1101 (human) in the same assay as above.
T7 construct: The construct is not described
B1 was tested, and the relative binding ratio was 0.0001 ratio (IC50 of standard peptide / IC50 of test peptide).
With B2 the relative binding ratio was -0.0002 ratio (IC50 of standard peptide / IC50 of test peptide).
With B3 the relative binding ratio was 0.0016 ratio (IC50 of standard peptide / IC50 of test peptide).
B4 was tested, and the relative binding ratio was 0.0002 ratio (IC50 of standard peptide / IC50 of test peptide).
For B5, the relative binding ratio was 0.0001 ratio (IC50 of standard peptide / IC50 of test peptide).
With B6 the relative binding ratio was 0.0013 ratio (IC50 of standard peptide / IC50 of test peptide).

Each binder was assayed against HLA-A*1101 (purified HLA class I molecule) (human) (assay: inhibition of 125I probe peptide binding to purified HLA; ratio to standard peptide).
With FSRMARDPQR (also called Her2/neu.976 (10-mer)) [HER2/neu peptide, position 976, 10 amino acids] the relative binding ratio was 0.001 ratio (IC50 standard / IC50 test).
For GAGGMVHHR (also called Her2/neu.1038 (9-mer)) [HER2/neu peptide, position 1038, 9 amino acids], the relative binding ratio was 0.0043 ratio (IC50 standard / IC50 test).

The binders below were run against T8, HLA-A*0301 (purified HLA class I molecule) (human) (assay: inhibition of 125I probe peptide binding to purified HLA; ratio to standard peptide; minus sign not explained).
T8 construct: also called A3
In the case of FSRMARDPQR (also called Her2/neu.976 (10-mer)) [HER2/neu peptide, position 976, 10 amino acids], the relative binding ratio is reported as -0.0002 ratio (IC50 standard / IC50 test).
With GAGGMVHHR (also called Her2/neu.1038 (9-mer)) [HER2/neu peptide, position 1038, 9 amino acids] the relative binding ratio was -0.0002 ratio (IC50 standard / IC50 test).
